We go through 18 molecules from US20250188167A1.

For assay [1], the target named is human B7-H3 (human) (UniProt Q5ZPR3). As to the kind of experiment: flow cytometry (FACS) on CHO-K1 cells expressing human B7-H3; goat anti-human IgG (H+L) secondary.
Assay [2] has the same target. The experiment in a line: flow cytometry (FACS) on CHO-K1/B7-H3 cells. In general terms: Flow cytometry measures light scatter and fluorescence of single cells or particles in a stream.
For assay [3] the target is unchanged. As to the kind of experiment: cell-based or functional assay.
For assay [4] the target is unchanged. As to the kind of experiment: cell-based or functional assay. The source holds these as a separate data set.

Residue numbers refer to the chain shown, from its start. Read-outs that look alike come from different tables or passages of the source.

Chain of UniProt Q5ZPR3 (Q5ZPR3 29-534): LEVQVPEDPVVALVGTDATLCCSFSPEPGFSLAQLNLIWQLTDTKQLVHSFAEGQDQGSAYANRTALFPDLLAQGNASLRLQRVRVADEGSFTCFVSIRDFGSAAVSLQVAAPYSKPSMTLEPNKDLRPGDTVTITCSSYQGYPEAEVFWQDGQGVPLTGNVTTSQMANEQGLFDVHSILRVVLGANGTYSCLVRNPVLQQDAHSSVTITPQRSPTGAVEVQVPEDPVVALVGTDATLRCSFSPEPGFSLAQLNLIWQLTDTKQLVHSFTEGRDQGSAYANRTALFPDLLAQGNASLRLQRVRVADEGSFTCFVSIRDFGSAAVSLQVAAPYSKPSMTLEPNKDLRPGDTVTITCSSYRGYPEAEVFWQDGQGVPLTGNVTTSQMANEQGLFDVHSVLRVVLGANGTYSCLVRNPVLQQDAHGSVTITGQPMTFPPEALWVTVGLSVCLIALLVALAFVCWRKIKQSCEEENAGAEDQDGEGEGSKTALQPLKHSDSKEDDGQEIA

Take MGA271 (Enoblituzumab) (antibody): the concentration for a half-maximal effect (EC50) (in general, the midpoint of the concentration-response curve) with human B7-H3 (human) [1] was found to be 102 nM. This molecule returned an EC50 with human B7-H3 (human) [2] of 20.8 nM. In the assay with human B7-H3 (human) [3], the ADCC % Relative activity (EC50 of positive control MGA-271 / EC50 of sample), plate 01 came out at 100%; the ADCC % Relative activity (EC50 of positive control MGA-271 / EC50 of sample), plate 02 came out at 100%; the ADCC EC50 (% target cell lysis, LDH; NK92/CD16a-VV effector cells), plate 01 came out at 0.0394 µg/mL; the ADCC EC50 (% target cell lysis, LDH; NK92/CD16a-VV effector cells), plate 02 was 0.0443 µg/mL.
MGA271-hIgG1 (antibody) returned an EC50 with human B7-H3 (human) [1] of 81.6 nM.
As for DS-5573a (antibody), in the assay with human B7-H3 (human) [3], the CDC % Relative activity (EC50 of positive control DS-5573a / EC50 of sample) amounted to 100%; the CDC % Relative activity (EC50 of positive control DS-5573a / EC50 of sample), plate 01 worked out at 100%; the CDC % Relative activity (EC50 of positive control DS-5573a / EC50 of sample), plate 02 is 100%; the CDC EC50 (% target cell lysis, Cell Titer-Glo) amounted to 0.69 µg/mL. In the assay with human B7-H3 (human) [3], the CDC EC50 (% target cell lysis, Cell Titer-Glo), plate 01 stood at 0.595 µg/mL and the CDC EC50 (% target cell lysis, Cell Titer-Glo), plate 02 amounted to 0.628 µg/mL.

B1: 47F3F10B4-VH2-VL4 (antibody, human IgG1, kappa, V domains shown)
VH: QVQLVQSGAEVKKPGASVKVSCKASGYTFTDHYMHWVRQAPGQGLEWMGYIFPNNGVSGYNQNFKDRVTMTRDTSTSTVYMELSSLRSEDTAVYYCARRQLGLGTMDYWGQGTLVTVSS
VL: DIQMTQSPSSLSASVGDRVTITCRASKSVSTSGYNYMHWYQQKPGKAPKLLIYLASNLESGVPSRFSGSGSGTDFTLTISSLQPEDFATYYCQHSKELPWTFGQGTKVEIKR
In the assay with human B7-H3 (human) [1], B1 registered a 50% effective concentration (EC50) of 0.767 nM.

B2: 47F3F10B4-VH1-VL4(IgG1m) (antibody)
heavy: QVQLVQSGAEVKKPGASVKVSCKASGYTFTDHYMHWVRQAPGQGLEWMGYIFPNNGVSGYNQNFKDRVTMTRDTSISTAYMELSRLRSDDTAVYYCARRQLGLGTMDYWGQGTLVTVSSASTKGPSVFPLAPSSKSTSGGTAALGCLVKDYFPEPVTVSWNSGALTSGVHTFPAVLQSSGLYSLSSVVTVPSSSLGTQTYICNVNHKPSNTKVDKRVEPKSCDKTHTCPPCPAPELVGGPSVFLLPPKPKDTLMISRTPEVTCVVVDVSHEDPEVKFNWYVDGVEVHNAKTKPPEEQYNSTLRVVSVLTVLHQDWLNGKEYKCKVSNKALPAPIEKTISKAKGQPREPQVYTLPPSREEMTKNQVSLTCLVKGFYPSDIAVEWESNGQPENNYKTTPLVLDSDGSFFLYSKLTVDKSRWQQGNVFSCSVMHEALHNHYTQKSLSLSPGK
light: DIQMTQSPSSLSASVGDRVTITCRASKSVSTSGYNYMHWYQQKPGKAPKLLIYLASNLESGVPSRFSGSGSGTDFTLTISSLQPEDFATYYCQHSKELPWTFGQGTKVEIKRTVAAPSVFIFPPSDEQLKSGTASVVCLLNNFYPREAKVQWKVDNALQSGNSQESVTEQDSKDSTYSLSSTLTLSKADYEKHKVYACEVTHQGLSSPVTKSFNRGEC
Consider B2, for which, in the assay with human B7-H3 (human) [4], the CDC % Relative activity (EC50 of positive control DS-5573a / EC50 of sample), plate 02 was determined as 445% and the CDC EC50 (% target cell lysis, Cell Titer-Glo), plate 02 amounted to 0.141 µg/mL. For the same molecule, in the assay with human B7-H3 (human) [1], the EC50 worked out at 0.299 nM.

B3: 47F3F10B4 (antibody, V domains shown)
VH: EVQLQQSGPELVKPGASVKMSCKASGYTFTDHYMHWVKQSHGKSLEWIGYIFPNNGVSGYNQNFKDKATLTVDKSSSTAYMDLRSLTPEDSAVYYCTRRQLGLGTMDYWGQGTSVTVSS
VL: DIVLTQSPASLAVSLGQRATISCRASKSVSTSGYNYMHWYQQKPGQPPKLLIYLASNLESGVPARFSGSGSGTDFTLNIHPVEEEDAATYYCQHSKELPWTFGGGTKLEIK
With B3, the concentration giving a half-maximal response (EC50) with human B7-H3 (human) [2] worked out at 0.751 nM.

B4: 12C9F1B5-VH4-VL2 (antibody, human IgG1, kappa, V domains shown)
VH: QVQLVQSGAEVKKPGASVKVSCKASGFTNYGMNWVRQAPGQRLEWMGWINPYSGVPTYADDFKGRVTITRDTSASTAYMELSSLRSEDTAVYYCARDDGFHYTMDYWGQGTLVTVSS
VL: DIVMTQSPLSLPVTPGEPASISCRSSQNLVHSNGITYLHWYLQKPGQSPQLLIYKVSNRFSGVPDRFSGSGSGTDFTLKISRVEAEDVGVYYCSQSTLVPWTFGQGTKVEIKR
Turning to B4, in the assay with human B7-H3 (human) [4], the CDC % Relative activity (EC50 of positive control DS-5573a / EC50 of sample), plate 01 worked out at 155% and the CDC EC50 (% target cell lysis, Cell Titer-Glo), plate 01 turned out to be 0.384 µg/mL. Moreover, in the assay with human B7-H3 (human) [1], the EC50 worked out at 0.339 nM.

B5: 43H11G12-VH4-VL2 (antibody, human IgG1, kappa, V domains shown)
VH: QVQLVQSGAEVKKPGASVKVSCKASGYNFRDFGMNWVRQAPGQRLEWMGWLNSYSGVPTYADDFKGRVTITRDTSASTAYMELSSLRSEDTAVYYCARDDGYNYTMNYWGQGTLVTVSS
VL: B4 VL with N28S, L98H
With B5, in the assay with human B7-H3 (human) [4], the CDC % Relative activity (EC50 of positive control DS-5573a / EC50 of sample), plate 01 is 104% and the CDC EC50 (% target cell lysis, Cell Titer-Glo), plate 01 is 0.57 µg/mL. In the assay with human B7-H3 (human) [1], this molecule had an EC50 of 0.155 nM.

B6: 12C9F1B5-VH2.1-VL2 (antibody, human IgG1, kappa, V domains shown)
VH: B4 VH with R42G, I68M, A74I, S83R, E87D
VL: B4 VL
As for B6, the EC50 with human B7-H3 (human) [1] turned out to be 0.153 nM.

B7: 12C9F1B5 (antibody, V domains shown)
VH: QIQLVQSGPELKKPGETVKISCKASGFTNYGMNWVKQAPGKGLKWMGWINPYSGVPTYADDFKGRFAFSLETSASTAYLQINNLKNEDTATYFCARDDGFHYTMDYWGQGTSVTVSS
VL: DVVLTQTPLSLPVSLGDQASISCRSSQNLVHSNGITYLHWYLQKPGQSPKLLIYKVSNRFSGVPDRFSGSGSGTDFTLTISRVEAEDLGVYFCSQSTLVPWTFGGGTKLEIK
Consider B7, for which, in the assay with human B7-H3 (human) [2], the EC50 was 4.76 nM.

B8: 37F11A10 (antibody, V domains shown)
VH: QIQLVQSGPELKKPGETVKISCKASGDTFRNYGMNWVKQAPGKGLKWMGWINPYSGVPTYADDFKGRFAFSLETSASTAFLQINNLKNEDTATYFCARDDGFHYTMDYWGLGTSVTVSS
VL: B7 VL with L4M, N28S, V30L, I53T, N58H, T79K, L98H, K112R
On to B8, for which the EC50 in the assay with human B7-H3 (human) [2] is 1.38 nM.

B9: 38D6A4 (antibody, V domains shown)
VH: QIQLVQSGPELKKPGEAVKISCKASGSTFTDFGMNWVRQAPGKGLKWMGWINPYSGVPTYADEFKGRFVFSLETSARVAYMQINDLKNEDTATYFCARDDGYHYTMDYWGQGTSVTVSS
VL: B7 VL with L4M, S10P, N28S, V30I, S68T, T79K, L98H, T107S, K112R
For B9, the EC50 with human B7-H3 (human) [2] was found to be 1.78 nM.

B10: 47C7E3 (antibody, V domains shown)
VH: QIQLVQSGPELKKPGETVKISCKASGYTFTNFGMNWVKQAPGKGLKWMGWIYTPSGVPIYADDFKGRFAVSLETSASTAYLQINNLKNEDTATYFCARDDGYYYTMDYWGQGTSVTVSS
VL: B7 VL with V2D, L4M, Q18H, N28S, I35D, T79K, L98H
Take B10: the EC50 in the assay with human B7-H3 (human) [2] worked out at 0.87 nM.

B11: 37D11F5B8 (antibody, V domains shown)
VH: B8 VH with Y32N, F102Y, Y108F
VL: B7 VL with L4M, N28S, I53T, N58H, T79K, L98H
B11: in the assay with human B7-H3 (human) [2], the EC50 amounted to 0.909 nM.

B12: 43H11G12 (antibody, V domains shown)
VH: QIQLVQSGPELKKPGETVKISCKASGYNFRDFGMNWVKQAPGKGLKWMGWLNSYSGVPTYADDFKGRFVLSLETSASTAYLQINNLINEDTATYFCGRDDGYNYTMNYWGQGTSVTVSS
VL: B7 VL with L4M, T7A, N28S, K44R, P45A, K50Q, T79K, L98H
On to B12, for which the EC50 with human B7-H3 (human) [2] stood at 6.38 nM.

B13: 38F11B2 (antibody, V domains shown)
VH: B8 VH with D27Y, R30I, N31D, P53I, S77N, F80Y, F102Y, D107N, L111Q
VL: B7 VL with V2I, L4M, N28S, P45S, D75A, T79K, L98H
For the molecule B13, the 50% effective concentration (EC50) with human B7-H3 (human) [2] is 0.651 nM.

B14: 34A9C12 (antibody, V domains shown)
VH: B7 VH with P14S, M32I, T89S
VL: B7 VL with T5I, T79K
B14 came in with an EC50 with human B7-H3 (human) [2] of 0.822 nM.

B15: 31H11B1 (antibody, V domains shown)
VH: QVQLQQPGAELGKPGTSVKLSCKASGYTFTSYWMHWVKQRPGQGLEWIGHINPNSGSTNQNAKFKNKATLTVDESSSTAYMQLSTLTSEDSAVYYCTRSGSNYRRNYFDYWGQGTTLTVSS
VL: DIQMTQSSSYLSVSLGGRVTITCKASDHINNWLAWYQQKPGNAPRLLISGATSLETGVPSRFSGSGSGKDYTLSITSLQTEDVATYYCQQYWSTPLTFGAGTKLELK
For B15, the EC50 with human B7-H3 (human) [2] is 0.977 nM.
